Where no end group is shown, it is not given here.
T1: MAPT(10-24) (human, also: biotinylated, site not given here)
T1 construct: also called Tau fragment 10-24
T1 peptide: VMEDHAGTYGLGDRK

T2: Tau fragment 1-15 (human, UniProt P10636-8 1-15)
T2 construct: range 1-15
T2 peptide (looked up): MAEPRQEFEVMEDHA

T3: Tau fragment 19-33 (human, UniProt P10636-8 19-33, not fully specified)
T3 construct: range 19-33
T3 peptide (looked up): GLGDRKDQGGYTMHQ

T4: Tau fragment 28-42 (human, UniProt P10636-8 28-42, not fully specified)
T4 construct: range 28-42
T4 peptide (looked up): GYTMHQDQEGDTDAG

T5: Tau fragment 37-51 (human, UniProt P10636-8 37-51)
T5 construct: range 37-51
T5 peptide (looked up): GDTDAGLKESPLQTP


Assays:
[1] = molecular target: T6, full-length human Tau (flTau) (human, UniProt P10636-8 1-441); assay: SPR, hybridoma Ab on anti-IgG chip, flTau analyte
T6 construct: range 1-441; bought (SignalChem); also called human Tau-441
Procedure: Affinity of non-purified antibodies in serum-free hybridoma supernatants was estimated by surface plasmon resonance using a Biacore T-100 instrument (GE Healthcare, United Kingdom). Antibodies were immobilized onto an anti-IgG biosensor chip, and flTau (SignalChem, Canada) was used as the target analyte. Kinetic analysis was done using a 1:1 Langmuir fit model.
For affinity measurements to flTau, antibodies were measured using SPR on a Biacore instrument, with the KDs determined. Biacore affinity measurements were done by immobilizing antibodies on an anti-IgG chip and using flTau as the target analyte.

[2] = molecular target: T7, recombinant human Tau monomer, 2N4R isoform (amino acids 2-441) (human, UniProt P10636-8 2-441); assay: SPR, mIgG2a captured, Tau monomer analyte, 1:1 fit
T7 construct: range 2-441; N-terminal His-tag removed with TEV protease; also called monomeric Tau
Description: Antibody heavy and light chains were constructed via gene synthesis and subcloning of the resulting DNA into murine IgG2a (heavy chain) and murine kappa (light chain) mammalian expression vectors. Antibodies were expressed in CHO or 293T cells by transient co-transfection of the heavy chain and light chain plasmids and were purified with affinity resin MabSelectSure (GE Healthcare Life Sciences). Purified recombinant antibodies were screened for binding to Tau monomer protein on a Biacore T200 surface plasmon resonance instrument using a mouse IgG capture kit and a Series S CM5 chip. Antibodies in mIgG2a format diluted in 10 mM HEPES pH7.4, 150 mM NaCl, 0.05% Tween 20 (running buffer, HBSP) were captured for 30 or 45 seconds at a concentration of 1 μg/ml (antibodies 26C1, 94B2-C1, 52F6-F11.v1, 52F6-F11.v2, 11E10-B8, 55E7-F11, 125B1-H3, 123E9-A1, 30G1-B2, 66F5-A1, 89F4-A1, 93A8-D2 and 126F11-G11) or for 70 or 150 seconds at a concentration of 0.1 μg/ml (antibodies 19H6-F7, 3A4-H4, 54C1-H11 and 37D3-H9) using a flow rate of 10 μl/min. […] Association and dissociation times were monitored for 180-480 seconds and for 300-600 seconds respectively. Antibody 37D3-H9 was selected for further analysis due to the high affinity (Table 6) and the absence of NXS/T glycosylation motifs in the CDRs.

MAPT(10-24) = molecular target: T1, MAPT(10-24); assay: ELISA on Tau 15-mer peptides, O.D.; conditions of this panel not given
Tau fragment 1-15 = molecular target: T2, Tau fragment 1-15; assay: as above
Tau fragment 19-33 = molecular target: T3, Tau fragment 19-33; assay: as above
Tau fragment 28-42 = molecular target: T4, Tau fragment 28-42; assay: as above
Tau fragment 37-51 = molecular target: T5, Tau fragment 37-51; assay: as above
[3] = molecular target: T7, recombinant human Tau monomer, 2N4R …; assay: SPR, hIgG captured, Tau monomer analyte, 1:1 fit
Procedure: Affinity of selected antibodies was assessed at 25° C. using a Biacore T200 instrument, the GE Biacore human IgG capture kit and a CM5 Series S chip. The hIgG were diluted to 0.25 μg/ml in 10 mM HEPES pH7.4, 150 mM NaCl, 0.05% Tween 20 (running buffer, HBSP) and captured at a flow rate of 10 μl/min for 150 seconds. Kinetic data was collected for Human Tau monomer injected at concentrations of 0, 0.4, 1.2, 3.7, 11, 11, 33 and 100 nM in HBSP, using a flow rate of 30 μl/min, a 300 second association phase and a 600 second dissociation phase. Between cycles the surface was regenerated using two sequential 30 second injections of 3M MgCl at 10 μl/min. Data was fit to a 1:1 binding model (Table 15).

[4] = molecular target: T7, recombinant human Tau monomer, 2N4R …; assay: SPR single-cycle, human Fab capture kit, Tau monomer analyte; mean ± range, n=2
Procedure: Affinity of the humanized antibody variants was measured at 25° C. using a Biacore T200 instrument, the GE Biacore human FAb capture kit, and a CM5 Series S chip. Antibodies were diluted to 1 μg/ml in HBSP (10 mM HEPES pH7.4, 150 mM NaCl, 0.05% Tween 20) and captured at a flow rate of 10 μl/min for 180 seconds. Kinetic data were collected for human Tau monomer injected at 1.2, 3.7, 11, 33 and 100 nM in HBSP using the Single Cycle Kinetics methodology and a flow rate of 30 μl/min. Each concentration of Tau monomer was injected for a period of 3 minutes and dissociation was monitored for ten minutes. Between cycles, the surface was regenerated with two sequential one-minute injections of 10 mM glycine pH2.1. Data was fit to a 1:1 binding model using BIAEvaluation software. Each antibody was analyzed twice within the experiment; data in Table 22 are shown as mean±range.

[5] = molecular target: T7, recombinant human Tau monomer, 2N4R …; assay: SPR high-resolution kinetics, hIgG1
[6] = molecular target: T7, recombinant human Tau monomer, 2N4R …; assay: SPR screen, hIgG captured, Tau monomer analyte
Description: Antibody 125B11-H3 was humanized onto VH3 and Vκ1 consensus frameworks. The heavy chain graft included murine residues at position 78 (Kabat numbering system). The Vκ1 graft included murine residues in framework positions 43 and 87. The light chain of 113F5-F7 was also humanized onto the Vκ1 framework, with additional murine residues at framework positions 43 and 87. Humanized variant heavy chains (125B11) and light chains (125B11 and 113F5-F7) were co-transfected in multiple combinations and purified in 96-well format as described above. Humanized variants were then screened for affinity for human Tau monomer using the Biacore human IgG capture kit, a Series S CM5 chip and a Biacore T200 instrument. Antibodies were diluted to 2 μg/ml and captured for 15 seconds at 10 μl/min. Association and dissociation of 0, 100 and 500 nM human Tau monomer in HBSP was monitored for 180s and 300s respectively at a flow rate of 40 μl/min. A 1:1 binding model was applied to the results (Table 9).
Variants hu125B11.v17 (HC3+LC1), hu125B11.v26 (HC4+LC2) and hu125B 11.v28 (HC4+LC4) were selected for high-resolution kinetic analysis based on the affinity screen (Table 10). Antibody 94B2-C1 was humanized onto VH1 and Vx2 frameworks. The heavy chain graft also included murine residues at position 28, 29, 67, 69, 71, and 73 (Kabat numbering system). The Vκ2 graft also included murine residues in framework positions 2, 36, and 46. […] Variant hu94B2.v105 (heavy chain variant 94B2.HCl, light chain variant 94B2.LC13) was selected for detailed SPR characterization (Table 11).

T7 sequence (P10636 other isoform, or with tags, fused parts or gaps limits assumed): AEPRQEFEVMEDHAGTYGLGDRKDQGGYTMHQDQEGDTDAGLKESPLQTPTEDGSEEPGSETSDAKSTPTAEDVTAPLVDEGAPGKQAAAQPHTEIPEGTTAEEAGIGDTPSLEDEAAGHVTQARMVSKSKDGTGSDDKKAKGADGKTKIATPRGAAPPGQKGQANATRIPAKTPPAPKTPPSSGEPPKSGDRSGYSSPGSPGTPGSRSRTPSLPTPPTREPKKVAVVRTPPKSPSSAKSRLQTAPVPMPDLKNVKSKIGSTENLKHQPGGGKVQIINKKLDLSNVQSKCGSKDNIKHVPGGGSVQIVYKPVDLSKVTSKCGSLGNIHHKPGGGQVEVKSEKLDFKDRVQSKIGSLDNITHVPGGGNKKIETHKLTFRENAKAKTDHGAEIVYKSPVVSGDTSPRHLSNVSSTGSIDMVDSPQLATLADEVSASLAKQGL
T6 sequence (P10636 other isoform, or with tags, fused parts or gaps limits assumed): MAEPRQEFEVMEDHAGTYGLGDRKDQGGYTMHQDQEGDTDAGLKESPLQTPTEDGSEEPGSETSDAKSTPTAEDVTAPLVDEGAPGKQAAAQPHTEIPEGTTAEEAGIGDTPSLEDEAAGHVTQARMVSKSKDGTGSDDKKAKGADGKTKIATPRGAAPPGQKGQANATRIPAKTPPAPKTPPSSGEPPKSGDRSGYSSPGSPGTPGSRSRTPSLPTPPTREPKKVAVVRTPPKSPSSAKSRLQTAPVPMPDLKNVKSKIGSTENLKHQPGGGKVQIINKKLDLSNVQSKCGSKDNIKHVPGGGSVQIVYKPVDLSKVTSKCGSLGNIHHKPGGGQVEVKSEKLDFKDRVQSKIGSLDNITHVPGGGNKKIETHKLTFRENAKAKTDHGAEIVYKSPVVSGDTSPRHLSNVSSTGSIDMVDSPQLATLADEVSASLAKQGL

Binder	Kd [1]	Kd [2]	koff [2]	kon [2]	binding result (MAPT(10-24))	binding result (Tau fragment 1-15)	binding result (Tau fragment 19-33)	binding result (Tau fragment 28-42)	binding result (Tau fragment 37-51)	Kd [3]	koff [3]	kon [3]	Kd [4]	koff [4]	kon [4]	Kd [5]	koff [5]	kon [5]	Kd [6]
54C1-H11 (antibody, mouse IgG2a, V domains shown) VH: EVQLVESGGDLVKPGGSLKVSCVASGFTFRSYGMSWVRQTPDKRLDWVATISSGGNYTYYPDSVKGRFTISRDNAKNTLYLQMSSLKSEDTAMYYCASSYSGAMDYWGQGTSVTVSS VL: DTVMTQSPLSLPVSLGDQASISCRSSQSIVHSNGNTYLEWYLQKPGQSPKLLIYTVSNRFSGVPDRFSGSGSGTDFTLKISRVEAEDLGVYYCFQGSHVPWTFGGGTKLEIK	1.5 nM	0.6 nM	0.0002 s⁻¹	300000 M⁻¹ s⁻¹	binds	no binding (tested: not given)	no binding (tested: not given)	no binding (tested: not given)	no binding (tested: not given)										
123E9-A1 (antibody, mouse IgG2a, V domains shown) VH: EVQLQQSGPELVKPGASVKMSCKASGYTFTDYYMKWVKQSHGKSLEWIGDIDPNNGGTSYNQKFKGKATLTVDKSSSTAYMQLNSLTSEDSAVYYCARSAGFGDSFSFWGLGTLVTVSA VL: DVLMTQTPLSLPVSLGDQASISCRSSQSIVHSNGNTYLEWYLQKPGQSPKLLIYKVSNRFSGVPDRFSGSGSGTDFTLKISRVEAEDLGFYYCFQGSHVPPTFGGGTKLEIK	1.8 nM	52 nM	0.02 s⁻¹	400000 M⁻¹ s⁻¹	no binding (tested: not given)	no binding (tested: not given)	binds	binds	no binding (tested: not given)										
hu37D3-H9.v1 hIgG4.S228P (antibody, also called hu37D3.v1 hIgG4) heavy: not shown light: EDQLTQSPSSLSASVGDRVTITCRSSQSIVHSNGNTYFEWYQQKPGKSPKLLIYKVSNRFSGVPSRFSGSGSGTDFTLTISSLQPEDFATYYCFQGSLVPWTFGQGTKVEIKRTVAAPSVFIFPPSDEQLKSGTASVVCLLNNFYPREAKVQWKVDNALQSGNSQESVTEQDSKDSTYSLSSTLTLSKADYEKHKVYACEVTHQGLSSPVTKSFNRGEC										2 nM	0.0013 s⁻¹	670000 M⁻¹ s⁻¹	2.3 nM	0.001 s⁻¹	600000 M⁻¹ s⁻¹				
89F4-A1 (antibody, mouse IgG2a, V domains shown) VH: EVQLVESGGGLVQPKGSLKLSCAASGFTFNTYAMNWVRQAPGKGLEWVARIRSKSNNYAAYFADSVKDRFTISRDDSQTMLYLQMNNLKSEDTAMYYCVSGGNYVPFAYWGQGTLVTVSA VL: NIMMTQSPSSLAVSAGEKVTMSCKSSQSVFYSSEQRNYLAWYQQKPGQSPKLLISWASTRESGVPDRFTGSGSGTDFTLTISSVQGEDLAVYYCHQYLSSFTFGSGTKLEIK	2.9 nM	27 nM	0.007 s⁻¹	300000 M⁻¹ s⁻¹	no binding (tested: not given)	no binding (tested: not given)	no binding (tested: not given)	binds	binds										
hu37D3-H9.v28.A4 hIgG1 (antibody, V domains shown, human IgG1, kappa) VH: EVQLVESGGGLVQPGGSLRLSCAASGLIFRSYGMSWVRQAPGKGLEWVATINSGGTYTYYPDSVKGRFTISRDNSKNTLYLQMNSLRAEDTAVYYCANSYSGAMDYWGQGTLVTVSS VL: DDVLTQTPLSLPVTPGQPASISCRSSQSIVHSNGNTYLEWYLQKPGQSPQLLIYKVSNRFSGVPDRFSGSGSGTDFTLKISRVEAEDVGVYYCFQGSLVPWTFGQGTKVEIK										1.5 nM	0.0011 s⁻¹	690000 M⁻¹ s⁻¹							
hu94B2.v105 (94B2.HC1 + 94B2.LC13) (antibody, IgG1, V domains shown, also called hu94B2 HC1 + LC13) VH: EVQLVQSGAEVKKPGASVKVSCKASGYSLTGYTMNWVRQAPGQGLEWIGLISPYNGVTSYNQKFKGRATLTVDKSTSTAYLELSSLRSEDTAVYYCARQGAYWGQGTLVTVSS VL: DIVMTQTPLSLPVTPGQPASISCKSSQSLLDSDGKTYLNWLLQKPGQSPQRLIYLVSKLDSGVPDRFSGSGSGTDFTLKISRVEAEDVGVYYCWQGTHFPWTFGQGTKVEIK																3.7 nM	0.0003 s⁻¹	80000 M⁻¹ s⁻¹	4.1 nM
94B2-C1 (antibody, mouse IgG2a, V domains shown) VH: EVQLQQSGPELVKPGASMKISCKASGYSLTGYTMNWVKQSHGKNLEWIGLISPYNGVTSYNQKFKGKATLTVDKSSNTAYMELLSLTFEDSAVYYCARQGAYWGQGTLVTVSA VL: not shown	1.9 nM	6 nM	0.0003 s⁻¹	50000 M⁻¹ s⁻¹	binds	binds		no binding (tested: not given)	no binding (tested: not given)										
